{
  "source": "paper PMC3315491",
  "data": [
    {"target": "T1, EspR (UniProt P9WJB7)", "T1 sequence": "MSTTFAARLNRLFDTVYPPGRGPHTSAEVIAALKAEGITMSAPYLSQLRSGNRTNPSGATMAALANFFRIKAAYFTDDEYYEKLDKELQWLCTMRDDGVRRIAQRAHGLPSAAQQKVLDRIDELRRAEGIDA", "experiment": "EMSA", "values": [
      {"sequence": "ACCTCAACGACAATTTGCCAGAGCTAGTCAGCGACATAGAAGACAAAACACTCCAATGGCATGATCGAGCTTAGCTATGCTCCGGATGTAGCTGGCCGAAGAT (double strand) [rv2929 peak probe]", "binding": "binds"},
      {"sequence": "ACTTGAGTTCTTCAGCAATGATGCATGCACGACTGTAGACCTGCGACCAAGTCAAGCTGTCAGCAAATCCCTTGGGGTCGGATCCGTAGTCGATGTACGTATATGCAGTGCTGTCAGGCT (double strand) [fadD26 peak probe]", "binding": "binds more weakly"},
      {"sequence": "GAAAACCGCCCCAGTTGCGGTGTGCGCTAGTTAACATCGCAACTACATATCAGCAAATCAGGGAGAGGAAACCGTGTCGTTTGTGTTGGTGTCTCCGTCGCA (double strand) [pe_pgrs19 peak probe]", "binding": "binds"},
      {"sequence": "GCTCATCGATGTGACCTCCACCGGGCTCCAAGAGCAAACGGTTATCTGTATGTATTTGCTGATCATGGTAGCGACAGTTGTGTCCACAACCAAGTGCAAACCTGAGCGGATT (double strand) [espR peak a EMSA probe]", "binding": "binds"},
      {"sequence": "GCTTGTCCCAAAGCTCTTTCAGGCCGTTGAGCGCGTTTGTGATGAACTCCCACACTTCTCCGAGGGTGCCCTTGATGATGTCCGCCACATCCGAAATGAT (double strand) [espA ORF negative control probe]", "binding": "no binding"},
      {"sequence": "TCAGGATGACCGTGTCGGGCGGATGCGGCCGACTCCGGGCAACCAGCAGCCAACGGAGATTCGCCGAGAGCCTCCTTTGCTGCCTGGGTCCGCACAGCGCTCGTCAGGCGA (double strand) [espR peak b EMSA probe]", "binding": "binds"},
      {"sequence": "TGCGTCGGTTAGTCTCTTTTTCGACCTTGGGGCGCGGAGGGTCGTTATGGTGTGTCACAGTGCTTTGCTGTCAAAGGCATTGGCGGTGCCGACCAAGCGACACT (double strand) [rv1490 peak probe]", "binding": "binds"}
    ]}
  ]
}
